Laboratory results from article PMC314469, “Protein Interaction Networks by Proteome Peptide Scanning” (PLoS Biology, 2004).

T1: Yfr024 SH3 (LSB3_YEAST), P43603
T1 chain: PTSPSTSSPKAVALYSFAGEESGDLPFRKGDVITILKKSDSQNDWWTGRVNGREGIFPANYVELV

T2: Boi2 SH3 (BOI2_YEAST), P39969
T2 chain: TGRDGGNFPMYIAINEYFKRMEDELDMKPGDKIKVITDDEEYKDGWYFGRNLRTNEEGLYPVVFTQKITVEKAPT

T3: Yhr016c SH3 (YSC84_YEAST), P32793
T3 chain: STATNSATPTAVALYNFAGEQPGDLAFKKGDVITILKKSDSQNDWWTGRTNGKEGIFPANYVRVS

T4: Boi1 SH3 (BOI1_YEAST), P38041
T4 chain: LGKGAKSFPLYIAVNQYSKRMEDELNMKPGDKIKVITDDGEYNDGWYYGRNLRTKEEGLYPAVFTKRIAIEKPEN

T5: Rvs167 SH3 (RV167_YEAST), P39743
T5 chain: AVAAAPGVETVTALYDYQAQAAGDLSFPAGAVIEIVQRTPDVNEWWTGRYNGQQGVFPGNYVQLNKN

B1: YBL016W 218-231 (peptide)
chain: LRRPIFPGRDYRHQ
B2: YDR545W 312-325 (peptide)
chain: LRSPNTPRRLRKTL
B3: YJL187C 191-204 (peptide)
chain: LRIPETPVKKSPLV
B4: YKL216W 131-144 (peptide)
chain: LSSPNVPGKPQVAY
B5: YER141W 449-462 (peptide)
chain: LRKPRAPMRNVIIT
B6: YER158C 363-376 (peptide)
chain: LPPPRSPNRPTLSD
B7: YMR086W 52-65 (peptide)
chain: LRKPSAPKRMSSIS
B8: YFL036W 1327-1340 (peptide)
chain: LRLPEIPPKGDFDV
B9: YGR233C 693-706 (peptide)
chain: LPPPIIPLRKYGHN
B10: YGR204W 307-320 (peptide)
chain: LQIPPLPLKLLTPV
B11: YGL195W 2564-2577 (peptide)
chain: LRDPVIPIKLAAEK
B12: YAR003W 101-114 (peptide)
chain: LSKPSKPLKEIRFD
B13: YBR279W 17-30 (peptide)
chain: LPVPQLPPKLLVYP
B14: YLR253W 491-504 (peptide)
chain: LQNPLGPERTFLIM
B15: YPL115C 235-248 (peptide)
chain: LRSPQNPNRMTAVI
B16: YOR181W 341-354 (peptide)
chain: LPAPPPPPRRGPAP
B17: YAR068W 116-129 (peptide)
chain: LSLPRLPNKHHWPL
B18: YDL140C 239-252 (peptide)
chain: LPVPPPPVRPSISF
B19: YPL115C 570-583 (peptide)
chain: LPLPTLPDRQLFQT

Biological target: T1, Yfr024 SH3 (LSB3_YEAST), P43603
Assay: SPOT array

Row | Binder | normalised SPOT signal, Boehringer light units (BLU); mean over the file's lines of this peptide
1 | B1 | 8010
2 | B2 | 21100
3 | B3 | 164
4 | B4 | 201
5 | B5 | 3330
6 | B6 | 33900
7 | B7 | 2940
8 | B8 | 322
9 | B9 | 15900
10 | B10 | 1670
11 | B11 | 68.1
12 | B12 | 586
13 | B13 | 4360
14 | B14 | 197
15 | B15 | 1210
16 | B16 | 6280
17 | B17 | 27100
18 | B18 | 11400
19 | B19 | 15100

Biological target: T2, Boi2 SH3 (BOI2_YEAST), P39969
Assay: SPOT array

Row | Binder | normalised SPOT signal, Boehringer light units (BLU); mean over the file's lines of this peptide
20 | B1 | 234
21 | B2 | 322
22 | B3 | 42
23 | B4 | 43.1
24 | B5 | 90.5
25 | B6 | 48500
26 | B7 | 77.6
27 | B8 | 78.1
28 | B9 | 353
29 | B10 | 49.8
30 | B11 | 28.8
31 | B12 | 63
32 | B13 | 57.9
33 | B14 | 32.9
34 | B15 | 49
35 | B16 | 55.6
36 | B17 | 44.9
37 | B18 | 51.2
38 | B19 | 48.9

Biological target: T3, Yhr016c SH3 (YSC84_YEAST), P32793
Assay: SPOT array

Row | Binder | normalised SPOT signal, Boehringer light units (BLU); mean over the file's lines of this peptide
39 | B1 | 1090
40 | B2 | 3240
41 | B3 | 37.4
42 | B4 | 77.3
43 | B5 | 257
44 | B6 | 12200
45 | B7 | 270
46 | B8 | 124
47 | B9 | 18400
48 | B10 | 195
49 | B11 | 0
50 | B12 | 227
51 | B13 | 196
52 | B14 | 49
53 | B15 | 155
54 | B16 | 1260
55 | B17 | 2000
56 | B18 | 3380
57 | B19 | 6800

Biological target: T4, Boi1 SH3 (BOI1_YEAST), P38041
Assay: SPOT array

Row | Binder | normalised SPOT signal, Boehringer light units (BLU); mean over the file's lines of this peptide
58 | B1 | 825
59 | B2 | 236
60 | B3 | 66.9
61 | B4 | 67.9
62 | B5 | 197
63 | B6 | 53500
64 | B7 | 119
65 | B8 | 1.5
66 | B9 | 20400
67 | B10 | 113
68 | B11 | 200
69 | B12 | 233
70 | B13 | 375
71 | B14 | 121
72 | B15 | 55.6
73 | B16 | 2960
74 | B17 | 197
75 | B18 | 37.7
76 | B19 | 125

Biological target: T5, Rvs167 SH3 (RV167_YEAST), P39743
Assay: SPOT array

Row | Binder | normalised SPOT signal, Boehringer light units (BLU); mean over the file's lines of this peptide
77 | B1 | 947
78 | B2 | 2540
79 | B3 | 1.6
80 | B4 | 1.5
81 | B5 | 229
82 | B6 | 15000
83 | B7 | 276
84 | B8 | 28.8
85 | B9 | 1930
86 | B10 | 78.2
87 | B11 | 2.2
88 | B12 | 82.7
89 | B13 | 64.4
90 | B14 | 27.6
91 | B15 | 20.7
92 | B16 | 5620
93 | B17 | 252
94 | B18 | 769
95 | B19 | 3860
